Results from US20210032338A1.

Molecular target: T Cell Receptor Gamma Variable 9 (TRGV9) on human γδ T cells (human) (UniProt Q99603)
Assay: binding to γδ-enriched T cells, 1 h at 37 °C (panel γδ T-cell binding)

EC50: 0.56 nM
B1: VG9B2, chimera human IgG1 mAb (silent Fc) of mouse anti-human TCR Vγ9 clone B3 (antibody, V domains shown)
VH: QGQMQQSGAELVKPGASVKLSCKTSGFTFSSNYISWLKQKPGQSLEWIAWIHGGTGGIGYNQKFTGKAQLTVDTSSTTAYMQFSSLTTEDSAIYYCARRGYGAWFAYWGQGTLVTVSA
VL: DIQMTQSPASLSASVGETVTITCRASENIHNYLAWYQQKQGKSPQLLVYNAKTLADGVPSRFSGSGSGTQYSLKINSLQPEDFGNYYCQHFWSYPLTFGAGTKLELK
